# Residue numbers refer to the chain shown, from its start.
# B1: RF16-242 (antibody, human IgG4 S228P, lambda, V domains shown)
# VH: EVQLLQSGAEVKKPGESLKISCKGSGYSFTSYWIGWVRQMPGKGLEWMGIIYPGDSDTRYSPSFQGQVTISADKSISTAYLQWSSLKASDTAMYYCARRGHYGDYFDYWGQGTLVTVSS
# VL: SYELTQPPSVSVSPGQTARITCSGDALPKKYAYWYHQKSGQAPVLVIYEDRRRPSEIPERFSGSSSGTMATLTITGAQVEDEGVYFCYSRDRAGNQRVFGGGTQLTVLG
# notes: pH-dependent anti-C2 antibody from a phage display library
# Columns and labels:
# Test in all cases: SPR, antibody captured, C2 as analyte;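 note: biacore at 37 °C, anti-C2 mAbs held by immobilised goat anti-human IgG, C2 alanine or serine mutants injected, double-referenced sensorgrams fitted to a 1:1 kinetic or steady-state model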
# [1] = biological target: T1, human C2 K329A (human, UniProt P06681 21-752)
# T1 sequence: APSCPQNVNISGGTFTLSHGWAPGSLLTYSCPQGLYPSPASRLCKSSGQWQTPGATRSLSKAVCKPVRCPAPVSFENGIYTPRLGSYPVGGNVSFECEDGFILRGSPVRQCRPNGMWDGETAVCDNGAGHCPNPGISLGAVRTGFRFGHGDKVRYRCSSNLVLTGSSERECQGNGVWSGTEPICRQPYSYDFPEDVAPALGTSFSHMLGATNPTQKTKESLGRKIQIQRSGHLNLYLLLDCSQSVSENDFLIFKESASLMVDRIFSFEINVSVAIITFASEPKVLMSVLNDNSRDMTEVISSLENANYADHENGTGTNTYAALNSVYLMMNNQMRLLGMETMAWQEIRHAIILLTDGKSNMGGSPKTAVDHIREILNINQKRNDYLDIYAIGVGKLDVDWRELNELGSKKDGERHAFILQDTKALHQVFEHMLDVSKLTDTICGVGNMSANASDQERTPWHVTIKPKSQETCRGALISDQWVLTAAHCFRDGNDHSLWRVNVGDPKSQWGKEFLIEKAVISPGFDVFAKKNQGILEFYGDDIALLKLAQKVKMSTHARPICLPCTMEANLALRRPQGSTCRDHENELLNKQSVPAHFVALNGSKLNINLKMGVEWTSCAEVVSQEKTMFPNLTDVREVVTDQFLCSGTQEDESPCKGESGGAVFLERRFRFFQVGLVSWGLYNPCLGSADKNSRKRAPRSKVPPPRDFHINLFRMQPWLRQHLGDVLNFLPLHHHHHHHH
# [2] = biological target: T2, human C2 D419A (human, UniProt P06681 21-752)
# T2 sequence: T1 sequence with A309K, D399A
# [3] = biological target: T3, human C2 N424A (human, UniProt P06681 21-752)
# T3 sequence: T1 sequence with A309K, N404A
# [4] = biological target: T4, human C2 L439A (human, UniProt P06681 21-752)
# T4 sequence: T1 sequence with A309K, L419A
binder,measurement,setting,value
B1,Kd,[1],14.8 nM
same,Kd,[2],10.5 nM
same,Kd,[3],5.7 nM
same,Kd,[4],170 nM

# Source: patent US20220332804A1 (CSL INNOVATION, published 2022)
